According to patent publication US20230287598A1 (TAURUS BIOSCIENCES, published 2023):
Residue numbers refer to the chain shown, from its start. Numbers in names are those of the source.

T1: CXCR1 (UniProt P25024 1-350, limits assumed)
T1 construct: whole, on cells; DiscoveRx PathHunter cell line; any reporter tag on the receptor is not described; also called CXCR1 receptor; CXCR1-U2OS
T1 sequence (looked up): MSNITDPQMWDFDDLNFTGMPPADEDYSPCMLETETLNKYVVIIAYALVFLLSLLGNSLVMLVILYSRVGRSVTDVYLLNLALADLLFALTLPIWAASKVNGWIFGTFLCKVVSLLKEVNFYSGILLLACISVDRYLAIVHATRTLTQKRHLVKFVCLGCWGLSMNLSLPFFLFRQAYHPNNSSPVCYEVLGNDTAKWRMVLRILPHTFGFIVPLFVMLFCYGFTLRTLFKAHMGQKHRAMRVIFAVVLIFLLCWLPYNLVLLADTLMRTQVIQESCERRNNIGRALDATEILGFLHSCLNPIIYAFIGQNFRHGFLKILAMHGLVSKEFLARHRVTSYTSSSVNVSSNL

B1: VH4-34+CDR3-IL8_CDR1-Cow_CDR2-E50S_Q5RQ6E / VL1-51 S2A, T5N, P8S, A12G, A13S, P14L, K46R, L47T, D51G, N52D, N53T, K54S, P56A IgG (antibody)
VH: QVQLREWGAGLLKPSETLSLTCTASGFSLSDKAVGWIRQPPGKGLEWIGSINHSGSTNYNPSLKSRVTISVDTSKNQFSLKLSSVTAADTAVYYCTSVHQETKKYQSPRSAKELRCQCIKTYSKPFHPKFIKELRVIESGPHCANTEIIVKLSDGRELCLDPKENWVQRVVEKFLKRAENSGSGSYTYNYEWHVDVWGQGLLVTVSS
light: QAVLNQPSSVSGSLGQKVTISCSGSSSNIGNNYVSWYQQLPGTAPRTLIYGDTSRASGIPDRFSGSKSGTSATLGITGLQTGDEADYYCASAEDSSSNAVFGSGTTLTVLGQPKAAPSVTLFPPSSEELQANKATLVCLISDFYPGAVTVAWKADSSPVKAGVETTTPSKQSNNKYAASSYLSLTPEQWKSHRSYSCQVTHEGSTVEKTVAPTECS
B2: VH4-34+CDR3-IL8_CDR1-Cow_CDR2-Cow_Q5RQ6E / VL1-51 S2A, T5N, P8S, A12G, A13S, P14L, D51G, N52D, N53T IgG (antibody)
VH: B1 VH with I48L, N52D, H53T, S54G, S56N, N58G
light: B1 light with R46K, T47L, S54K, A56P
B3: VH4-34+CDR3-IL8_CDR1-Cow_CDR2-Cow_Q5RQ6E / VL1-51 S2A, T5N, P8S, A12G, A13S, P14L, K46R, L47T, D51G, N52D, N53T, K54S, P56A IgG (antibody)
VH: B1 VH with I48L, N52D, H53T, S54G, S56N, N58G
light: B1 light
B4: VH4-34+CDR3-IL8_CDR1-Cow_CDR2-E50S_Q5RQ6E / VL1-51 I29V, N32G, K46R, L47T, D51G, N52D, N53T IgG (antibody)
VH: B1 VH
light: B1 light with A2S, N5T, S8P, G12A, S13A, L14P, I29V, N32G, S54K, A56P
B5: VH4-34+CDR3-IL8_CDR1-Cow_CDR2-E50S_Q5RQ6E / VL1-51 I29V, N32G, K46R, L47T, D51G, N52D, N53T, K54S, P56A IgG (antibody)
VH: B1 VH
light: B1 light with A2S, N5T, S8P, G12A, S13A, L14P, I29V, N32G
B6: VH4-34+CDR3-IL8_CDR1-Cow_CDR2-E50S_Q5RQ6E / VL1-51 S2A, T5N, P8S, A12G, A13S, P14L, D51G, N52D, N53T IgG (antibody)
VH: B1 VH
light: B1 light with R46K, T47L, S54K, A56P
B7: VH4-34+CDR3-IL8_CDR1-Cow_Q5RQ6E / VL1-51 I29V, N32G, K46R, L47T, D51G, N52D, N53T IgG (antibody)
VH: B1 VH with S50E
light: B1 light with A2S, N5T, S8P, G12A, S13A, L14P, I29V, N32G, S54K, A56P
B8: VH4-34+CDR3-IL8_CDR1-Cow_Q5RQ6E / VL1-51 I29V, N32G, K46R, L47T, D51G, N52D, N53T, K54S, P56A IgG (antibody)
VH: B1 VH with S50E
light: B1 light with A2S, N5T, S8P, G12A, S13A, L14P, I29V, N32G
B9: VH4-34+CDR3-IL8_CDR1-Cow_Q5RQ6E / VL1-51 S2A, T5N, P8S, A12G, A13S, P14L, K46R, L47T, D51G, N52D, N53T IgG (antibody)
VH: B1 VH with S50E
light: B1 light with S54K, A56P
notes: also called BID 43; VH4-34 MutF IL-8 5R6E CD1cow
B10: VH4-34+CDR3-IL8_CDR1-Cow_Q5RQ6E / VL1-51 S2A, T5N, P8S, A12G, A13S, P14L, K46R, L47T, D51G, N52D, N53T, K54S, P56A IgG (antibody)
VH: B1 VH with S50E
light: B1 light
B11: VH4-34+CDR3-IL8_CDR1-G31DY32K_CDR2-E50S_Q5RQ6E / VL1-51 S2A, T5N, P8S, A12G, A13S, P14L, D51G, N52D, N53T IgG (antibody)
VH: B1 VH with T23A, A24V, S25Y, F27G, L29F, A33Y, V34W, G35S
light: B1 light with R46K, T47L, S54K, A56P
B12: VH4-34+CDR3-IL8_CDR1-G31DY32K_CDR2-E50S_Q5RQ6E / VL1-51 S2A, T5N, P8S, A12G, A13S, P14L, K46R, L47T, D51G, N52D, N53T, K54S, P56A IgG (antibody)
VH: B1 VH with T23A, A24V, S25Y, F27G, L29F, A33Y, V34W, G35S
light: B1 light
B13: VH4-34+CDR3-IL8_CDR1-G31DY32K_Q5RQ6E / VL1-51 S2A, T5N, P8S, A12G, A13S, P14L, K46R, L47T, D51G, N52D, N53T, K54S, P56A IgG (antibody)
VH: B1 VH with T23A, A24V, S25Y, F27G, L29F, A33Y, V34W, G35S, S50E
light: B1 light
B14: VH4-34+CDR3-IL8_CDR2-E50S_Q5RQ6E / VL1-51 S2A, T5N, P8S, A12G, A13S, P14L, K46R, L47T, D51G, N52D, N53T, K54S, P56A IgG (antibody)
VH: B1 VH with T23A, A24V, S25Y, F27G, L29F, D31G, K32Y, A33Y, V34W, G35S
light: B1 light
B15: VH4-34+CDR3-IL8_Q5RQ6E / VL1-51 S2A, T5N, P8S, A12G, A13S, P14L, K46R, L47T, D51G, N52D, N53T, K54S, P56A IgG (antibody)
VH: QVQLREWGAGLLKPSETLSLTCAVYGGSFSGYYWSWIRQPPGKGLEWIGEINHSGSTNYNPSLKSRVTISVDTSKNQFSLKLSSVTAADTAVYYCTSVHQETKKYQSPRSAKELRCQCIKTYSKPFHPKFIKELRVIESGPHCANTEIIVKLSDGRELCLDPKENWVQRVVEKFLKRAENSGSGSYTYNYEWHVDVWGQGLLVTVSS
light: B1 light
B16: VH4-34+CDR3-IL8_CDR1-G31DY32K_Q5RQ6E / VL1-51 S2A, T5N, P8S, A12G, A13S, P14L, D51G, N52D, N53T IgG (antibody)
VH: B15 VH with G31D, Y32K
light: B1 light with R46K, T47L, S54K, A56P

The binders below were run against T1, CXCR1 (assay: flow cytometry, supernatant at 5 nM IgG).
With B1 the “Specific Binding (CXCR1-Cell median AFU / Parental Cell median AFU)” value was 2.
For B2, the “Specific Binding (CXCR1-Cell median AFU / Parental Cell median AFU)” value was 4.
For B3, the “Specific Binding (CXCR1-Cell median AFU / Parental Cell median AFU)” value was 2.
With B4 the “Specific Binding (CXCR1-Cell median AFU / Parental Cell median AFU)” value was 1.
For B5, the “Specific Binding (CXCR1-Cell median AFU / Parental Cell median AFU)” value was 2.
In the case of B6, the “Specific Binding (CXCR1-Cell median AFU / Parental Cell median AFU)” value is reported as 2.
In the case of B7, the “Specific Binding (CXCR1-Cell median AFU / Parental Cell median AFU)” value is reported as 1.
With B8 the “Specific Binding (CXCR1-Cell median AFU / Parental Cell median AFU)” value was 2.
For B9, the “Specific Binding (CXCR1-Cell median AFU / Parental Cell median AFU)” value was 10.
In the case of B10, the “Specific Binding (CXCR1-Cell median AFU / Parental Cell median AFU)” value is reported as 3.
B11 was tested, and the “Specific Binding (CXCR1-Cell median AFU / Parental Cell median AFU)” value was 1.
With B12 the “Specific Binding (CXCR1-Cell median AFU / Parental Cell median AFU)” value was 3.
With B13 the “Specific Binding (CXCR1-Cell median AFU / Parental Cell median AFU)” value was 2.
For B14, the “Specific Binding (CXCR1-Cell median AFU / Parental Cell median AFU)” value was 1.
In the case of B15, the “Specific Binding (CXCR1-Cell median AFU / Parental Cell median AFU)” value is reported as 3.
With B16 the “Specific Binding (CXCR1-Cell median AFU / Parental Cell median AFU)” value was 2.
